Patent US7323171

Target: CD2 on human T cells (human) (UniProt P06729)
Test: cell-based or functional assay

Sequence of UniProt P06729 (P06729 25-351 limits assumed): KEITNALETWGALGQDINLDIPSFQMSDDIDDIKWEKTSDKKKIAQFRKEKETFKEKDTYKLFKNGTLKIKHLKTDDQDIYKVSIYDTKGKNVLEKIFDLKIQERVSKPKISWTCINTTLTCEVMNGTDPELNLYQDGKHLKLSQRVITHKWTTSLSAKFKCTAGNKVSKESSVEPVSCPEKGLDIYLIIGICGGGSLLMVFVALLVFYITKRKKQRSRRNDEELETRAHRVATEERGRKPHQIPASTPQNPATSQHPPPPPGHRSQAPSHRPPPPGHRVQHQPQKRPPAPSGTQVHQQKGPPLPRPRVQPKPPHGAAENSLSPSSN

inhibition of allogeneic T cell activation by normal skin cells ([3H]TdR incorporation), antibody at 50 µg/ml: 40%
inhibition of autologous T cell proliferation ([3H]TdR incorporation) in response to lesional psoriatic epidermis, antibody at 50 µg/ml: 60%
Substance: anti-CD2 monoclonal antibody TS2/18
